Results reported in PMC4719083, “Myosin IXa Binds AMPAR and Regulates Synaptic Structure, LTP, and Cognitive Function” (Frontiers in Molecular Neuroscience, 2016).

Biological target: T1, GST C-terminal (Myo9a amino acids 2330-2626 fused to GST) (rat, UniProt Q9Z1N3 2330-2626)
T1 construct: Myosin IXa (Myo9a), rat, NCBI AJ001713, amino acids 2330-2626 (C-terminus); Cloned into pGEX-4T1; also called Myo9a GST C-term; Myo9a C-terminus; source: E. coli BL21, purified, immobilized on glutathione-Sepharose 4B beads
T1 sequence (looked up): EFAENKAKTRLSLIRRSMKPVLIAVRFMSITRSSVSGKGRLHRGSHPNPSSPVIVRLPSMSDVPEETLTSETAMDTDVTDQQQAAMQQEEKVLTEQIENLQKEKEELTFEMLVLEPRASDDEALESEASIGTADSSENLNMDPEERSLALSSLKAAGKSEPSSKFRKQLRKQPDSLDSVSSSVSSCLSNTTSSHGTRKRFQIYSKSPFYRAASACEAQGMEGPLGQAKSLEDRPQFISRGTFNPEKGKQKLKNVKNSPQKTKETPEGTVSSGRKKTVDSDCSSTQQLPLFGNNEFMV
Experiment: pull-down; purified GluA2 C-term (released from GST by thrombin, in PBS) incubated with glutathione Sepharose 4B-coupled GST or GST C-term from Myo9a; immunoblot
Settings: both partners purified

binding result: binds
B1: GluA2 C-term (GluA2 intracellular C-terminal tail, amino acids 834-883, released from GST by thrombin) (domain or fragment, rat, UniProt P19491 834-883, looked up)
chain: EFCYKSRAEAKRMKVAKNPQNINPSSSQNSQNFATYKEGYNVYGIESVKI
notes: AMPA receptor subunit GluA2, rat, NCBI M85035, intracellular C-terminal tail, amino acids 834-883; Cloned into pGEX-4T1; also called purified GluA2 C-terminus; GluA2 C-terminal tail; source: E. coli BL21, purified with glutathione-Sepharose 4B resin, released by thrombin
